{"source": "patent US8552157B2", "about": "“c-Kit antibodies and uses thereof” (ImClone LLC, priority 2011, dated 2013)", "key": {"[1]": {"tested_on": "MALM-3M human melanoma cell line xenograft", "assay": "Xenograft tumor growth inhibition, MALM-3M", "type": "in vivo, athymic nude mice", "protocol": "Briefly described, c-Kit-dependent human cancer cell lines are expanded in culture and then are injected subcutaneously into the rear flank of athymic nude mice (Charles River, Wilmington, Mass.) with 2-10 million cells per mouse. Anti-c-Kit mAbs are diluted in PBS, pH 7.2, and administered by intravenous injection at 4 or 40 mg/kg. […] Furthermore, treatment groups may include appropriate chemotherapy drugs or approved RTK inhibitors alone or in combination with the antibodies of the present invention. Antibodies and saline control are administered three times per week for four weeks Inhibition of tumor cell growth is determined by three dimensional caliper measurement of tumor volume twice weekly during the course of treatment. Tumor volume may be calculated as follows: Tumor volume(mm^3)=(length of the tumor)(width^2 of the tumor)(π/6), where the length of the tumor is the largest dimension of the tumor parallel to the skin surface and the width is the largest measurement perpendicular to the length, parallel to the skin surface. Body weight may also be measured frequently during the course of treatment as a general measurement of toxicity. T/C %, and P values are calculated by RM ANOVA where, T/C %=[(Treatment Volume/Initial Volume)/(Control Volume/Initial Volume)]*100 and the P value is calculated in relation to saline."}, "c-Kit in Mo7e cells [2]": {"target": "T1, c-Kit in Mo7e cells (Homo sapiens, UniProt P10721)", "T1 construct": "endogenous in cells; host or cells: Mo7e (human megakaryocytic leukemia)", "T1 sequence (P10721 26-976)": "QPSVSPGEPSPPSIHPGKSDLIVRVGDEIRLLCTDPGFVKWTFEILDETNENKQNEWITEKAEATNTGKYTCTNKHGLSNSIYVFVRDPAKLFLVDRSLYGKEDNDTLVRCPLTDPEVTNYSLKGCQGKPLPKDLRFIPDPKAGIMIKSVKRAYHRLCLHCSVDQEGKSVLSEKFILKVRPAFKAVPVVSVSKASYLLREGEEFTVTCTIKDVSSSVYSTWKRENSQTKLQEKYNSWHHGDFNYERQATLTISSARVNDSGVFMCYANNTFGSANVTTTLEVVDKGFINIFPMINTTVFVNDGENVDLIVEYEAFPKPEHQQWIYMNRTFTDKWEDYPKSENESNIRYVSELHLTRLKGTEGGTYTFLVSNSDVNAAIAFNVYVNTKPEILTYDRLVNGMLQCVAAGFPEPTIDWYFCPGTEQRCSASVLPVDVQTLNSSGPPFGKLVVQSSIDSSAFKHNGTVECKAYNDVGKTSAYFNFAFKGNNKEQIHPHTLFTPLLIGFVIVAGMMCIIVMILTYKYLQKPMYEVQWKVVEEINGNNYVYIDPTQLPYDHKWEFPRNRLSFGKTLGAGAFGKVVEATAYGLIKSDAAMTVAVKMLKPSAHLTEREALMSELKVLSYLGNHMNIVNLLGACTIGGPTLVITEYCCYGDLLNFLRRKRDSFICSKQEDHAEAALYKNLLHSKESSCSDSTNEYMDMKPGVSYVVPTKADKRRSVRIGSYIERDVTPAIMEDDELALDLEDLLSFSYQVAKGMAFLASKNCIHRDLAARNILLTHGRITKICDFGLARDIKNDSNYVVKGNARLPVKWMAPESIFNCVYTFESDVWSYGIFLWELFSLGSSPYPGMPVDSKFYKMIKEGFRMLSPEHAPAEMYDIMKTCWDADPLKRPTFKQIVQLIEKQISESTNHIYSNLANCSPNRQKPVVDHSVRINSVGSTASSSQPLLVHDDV", "assay": "In vitro c-Kit degradation assay (Example 7a, western blot), Mo7e", "type": "cell-based", "protocol": "Human cell lines expressing c-Kit (e.g., GIST882, Mo7e, and Malm-3M) are plated in a 6-well dish at a density of 3×10^6 cells/ml in 3 ml of serum-free media for all but one Mo7e assay that uses 10% serum. […] One well of cells is left untreated as a control. Immediately after the treatment period, the cells are washed in cold PBS, lysed in 100 μl lysis buffer (50 mM Hepes pH 7.5, 150 mM NaCl, 10 mM NaPPi, 50 mM NaF, 1 mM Na3VO4, 1% Triton X-100, protease inhibitor cocktail). After a ten minute incubation on ice, the cells are centrifuged at 12,000 g for 15 minutes at 4° C. The supernatant is collected and subjected to western blot analysis under reducing conditions. […] SCF induced degradation is not apparent when using 10% serum. (Replicates of GIST882=1, Mo7e=3, and Malm-3M=1)."}, "c-Kit in Mo7e cells [3]": {"target": "T1, c-Kit in Mo7e cells", "assay": "In vitro c-Kit degradation assay (Example 7, western blot), Mo7e", "type": "cell-based", "settings": "SCF 100 ng/ml, 12, 24, and 48 hours at 37° C., data not shown", "protocol": "An in vitro cell based assay may be used to measure the ability of c-Kit mAbs to induce degradation of c-Kit as measured by the amount of total c-Kit found in cell lysates after treating tumor cells with a c-Kit mAb at 37° C. Briefly, human cell lines expressing c-Kit (e.g., Mo7e and GIST882) are plated in a 6-well dish at a density of 3×10^6 cells/ml in 3 ml of serum-free media. […] One well of cells is left untreated as a control. Immediately after the treatment period, the cells are washed in cold PBS, lysed in 100 μl lysis buffer (50 mM Hepes pH 7.5, 150 mM NaCl, 10 mM NaPPi, 50 mM NaF, 1 mM Na3VO4, 1% Triton X-100, protease inhibitor cocktail). After a ten minute incubation on ice, the cells are centrifuged at 12,000 g for 15 minutes at 4° C. The supernatant is collected and subjected to western blot analysis under reducing conditions. […] As expected from previous reports in the scientific literature,\ndegradation of c-Kit was not observed after treatment of the tumor cells with SCF (100 ng/ml) for 12, 24, and 48 hours at 37° C. (data not shown)."}, "c-Kit in GIST882 cells": {"target": "T2, c-Kit in GIST882 cells (Homo sapiens, UniProt P10721, K642E)", "T2 construct": "endogenous in cells; host or cells: GIST882 (human gastrointestinal stromal tumor)", "T2 sequence (P10721 26-976 K642E)": "as the sequence (P10721 26-976) above, with K617E counted along it", "assay": "In vitro c-Kit degradation assay (Example 7, western blot), GIST882", "type": "cell-based", "settings": "SCF 100 ng/ml, 12, 24, and 48 hours at 37° C., data not shown"}}}
{"compound": "CN(C)/N=N/c1[nH]cnc1C(N)=O", "note": "[DTIC, dacarbazine, reference compound]", "values": [{"measurement": "T/C %", "setting": "[1]; Table 13 upper part, DTIC 80 mg/kg, P value 0.0021", "result": 68, "unit": "%"}]}
{"compound": "Cc1ccc(NC(=O)c2ccc(CN3CCN(C)CC3)cc2)cc1Nc1nccc(-c2cccnc2)n1", "note": "[Imatinib, imatinib, reference compound]", "values": [{"measurement": "T/C %", "setting": "[1]; Table 13 lower part, Imatinib 100 mg/kg, P value 0.0001", "result": 61, "unit": "%"}]}
{"compound": "CCN(CC)CCNC(=O)c1c(C)[nH]c(/C=C2\\C(=O)Nc3ccc(F)cc32)c1C", "note": "[Sunitinib, sunitinib, reference compound]", "values": [{"measurement": "T/C %", "setting": "[1]; Table 13 lower part, Sunitinib 40 mg/kg, P value 0.0004", "result": 68, "unit": "%"}]}
{"compound": "SCF: c-Kit ligand stem cell factor (SCF) [reference compound]", "values": [{"measurement": "degradation of c-Kit, in words", "setting": "c-Kit in Mo7e cells [2]; SCF 1 ug/ml and 100 ng/ml, 24 hours at 37° C., 0% serum", "result": "Degradation of c-Kit is observed"}, {"measurement": "degradation of c-Kit, in words", "setting": "c-Kit in Mo7e cells [2]; SCF, 10% serum", "result": "not apparent"}, {"measurement": "degradation of c-Kit, in words", "setting": "c-Kit in Mo7e cells [3]", "result": "not observed"}, {"measurement": "degradation of c-Kit, in words", "setting": "c-Kit in GIST882 cells", "result": "not observed"}]}
